Source: patent US20240385190A1 (EISAI R AND D MANAGEMENT, published 2024)
Where “and” joins values, the source holds several entries; their conditions need not be identical. Equal entries are not always repeated.

B1: KPEP11_08 (antibody)
heavy: QSLEESGGRLVTPGTPLTLTCTVSGFSLSSYHMSWVRQAPGKGLEWIGIIYRSGNTYYANWAKGRFTISKTSTTVDLKITSPTTEDTATYFCARESSTFYGMDLWGPGTLVTVSSGAPKAPSVFPLAPCCGDTPSSTVTLGCLVKGYLPEPVTVTWNSGTLTNGVRTFPSVRQSSGLYSLSSVVSVTSSSQPVTCNVAHPATNTKVDKTVAPSTCSKPTCPPPELLGGPSVFIFPPKPKDTLMISRTPEVTCVVVDVSQDDPEVQFTWYINNEQVRTARPPLREQQFNSTIRVVSTLPITHQDWLRGKEFKCKVHNKALPAPIEKTISKARGQPLEPKVYTMGPPREELSSRSVSLTCMINGFYPSDISVEWEKNGKAEDNYKTTPAVLDSDGSYFLYNKLSVPTSEWQRGDVFTCSVMHEALHNHYTQKSISRSPGK
light: DPVLTQTASSVSAAVGGTVTINCQASQSVYGNNELAWYQQKPGQPPKLLIYTASSLASGVPSRFKGSGSGTEFTLTISDLECADAATYYCLGYKSDDYTFGGGTEVVVKGAPVAPTVLIFPPAADQVATGTVTIVCVANKYFPDVTVTWEVDGTTQTTGIENSKTPQNSADCTYNLSSTLTLTSTQYNSHKEYTCKVTQGTTSVVQSFNRGDC
notes: Rabbit IgG/kappa; Used HRP-labeled as detection antibody in the sandwich ELISAs; also called anti-human EphA4 rabbit monoclonal antibody KPEP11_08; HRP-labeled KPEP11_08
B2: KPEP11_10 (antibody)
heavy: QSLEESGGRLVTPGTPLTLTCTVSGFSLSSYHMSWVRQAPGKGLEWIGIIYRSGNTYYANWAKGRFTISKTSTTVDLKITSPTTEDTATYFCARESSTFYGMDLWGPGTLVTVSSGAPKAPSVFPLAPCCGDTPSSTVTLGCLVKGYLPEPVTVTWNSGTLTNGVRTFPSVRQSSGLYSLSSVVSVTSSSQPVTCNVAHPATNTKVDKTVAPSTCSKPTCPPPELLGGPSVFIFPPKPKDTLMISRTPEVTCVVVDVSQDDPEVQFTWYINNEQVRTARPPLREQQFNSTIRVVSTLPITHQDWLRGKEFKCKVHNKALPAPIEKTISKARGQPLEPKVYTMGPPREELSSRSVSLTCMINGFYPSDISVEWEKNGKAEDNYKTTPAVLDSDGSYFLYNKLSVPTSEWQRGDVFTCSVMHEALHNHYTQKSISRSPGK
light: AIKMTQTPSSVSAAVGGTVTINCQASQSVYGNNELAWYQQKPGQPPKLLIYTASSLASGVPSRFKGSGSGTEFTLTISDLECADAATYYCLGYKSDDYTFGGGTEVVVKGAPVAPTVLIFPPAADQVATGTVTIVCVANKYFPDVTVTWEVDGTTQTTGIENSKTPQNSADCTYNLSSTLTLTSTQYNSHKEYTCKVTQGTTSVVQSFNRGDC
notes: Rabbit IgG/kappa; Used coated or HRP-labeled in the sandwich ELISAs; also called anti-human EphA4 rabbit monoclonal antibody KPEP11_10; HRP-labeled KPEP11_10
B3: KPEP11_18 (antibody, V domains shown)
VH: QSLEESGGRLVTPGTPLTLTCTISGFSLSSFYINWVRQAPGRGLEWIGIIYPDIDATDYASWVKGRFTISKTSTTVDLKITSPTTEDTATYFCARSDVDYYTTRLDLWGQGTLVTVSS
VL: DPMMTQTASPVSAAVGGTVSISCQSNKSVYSNWLSWFQQKPGQPPKLLIYGASTLASGVPSRFKGSGSGTQFTLTVSDVQCDDAATYFCLGGYRDNSDNAFGGGTEVVVKG
notes: Rabbit IgG/kappa; Used coated or HRP-labeled in the sandwich ELISAs; also called anti-human EphA4 rabbit monoclonal antibody KPEP11_18; HRP-labeled KPEP11_18

Assays:
[1] = molecular target: T1, human EphA4 extracellular domain-SEAP-His protein (human); assay: ELISA
T1 sequence (chain, as listed by the source limits assumed): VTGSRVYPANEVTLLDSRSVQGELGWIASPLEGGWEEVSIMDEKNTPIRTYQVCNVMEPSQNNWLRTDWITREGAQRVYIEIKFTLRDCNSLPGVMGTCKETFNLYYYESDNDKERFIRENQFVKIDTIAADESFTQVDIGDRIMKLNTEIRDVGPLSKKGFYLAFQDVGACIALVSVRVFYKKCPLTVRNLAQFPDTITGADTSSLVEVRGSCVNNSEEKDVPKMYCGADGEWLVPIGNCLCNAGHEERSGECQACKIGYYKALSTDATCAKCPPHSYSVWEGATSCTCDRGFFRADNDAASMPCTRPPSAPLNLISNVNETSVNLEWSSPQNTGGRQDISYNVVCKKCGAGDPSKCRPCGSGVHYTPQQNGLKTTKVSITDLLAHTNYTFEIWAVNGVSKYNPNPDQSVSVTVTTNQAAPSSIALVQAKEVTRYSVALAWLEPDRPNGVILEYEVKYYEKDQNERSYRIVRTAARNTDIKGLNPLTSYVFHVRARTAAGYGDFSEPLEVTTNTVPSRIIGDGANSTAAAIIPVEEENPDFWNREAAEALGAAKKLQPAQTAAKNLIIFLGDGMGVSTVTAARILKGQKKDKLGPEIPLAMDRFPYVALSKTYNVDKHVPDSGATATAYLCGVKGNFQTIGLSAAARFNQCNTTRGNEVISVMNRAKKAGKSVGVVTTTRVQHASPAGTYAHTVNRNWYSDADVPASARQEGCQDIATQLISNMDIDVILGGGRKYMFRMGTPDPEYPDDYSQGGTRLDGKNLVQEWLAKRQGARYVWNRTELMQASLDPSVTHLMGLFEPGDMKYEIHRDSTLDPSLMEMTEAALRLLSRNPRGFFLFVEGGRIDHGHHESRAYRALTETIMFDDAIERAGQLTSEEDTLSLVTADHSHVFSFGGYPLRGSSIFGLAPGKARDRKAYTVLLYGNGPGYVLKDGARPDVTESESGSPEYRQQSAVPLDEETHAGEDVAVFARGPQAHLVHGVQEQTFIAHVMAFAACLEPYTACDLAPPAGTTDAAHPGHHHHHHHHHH

[2] = molecular target: T2, monkey EphA4 extracellular domain-SEAP-His protein (monkey); assay: ELISA
T2 construct: the fusion as a whole has none; not shown: SEAP-His part
T2 sequence (chain, as listed by the source): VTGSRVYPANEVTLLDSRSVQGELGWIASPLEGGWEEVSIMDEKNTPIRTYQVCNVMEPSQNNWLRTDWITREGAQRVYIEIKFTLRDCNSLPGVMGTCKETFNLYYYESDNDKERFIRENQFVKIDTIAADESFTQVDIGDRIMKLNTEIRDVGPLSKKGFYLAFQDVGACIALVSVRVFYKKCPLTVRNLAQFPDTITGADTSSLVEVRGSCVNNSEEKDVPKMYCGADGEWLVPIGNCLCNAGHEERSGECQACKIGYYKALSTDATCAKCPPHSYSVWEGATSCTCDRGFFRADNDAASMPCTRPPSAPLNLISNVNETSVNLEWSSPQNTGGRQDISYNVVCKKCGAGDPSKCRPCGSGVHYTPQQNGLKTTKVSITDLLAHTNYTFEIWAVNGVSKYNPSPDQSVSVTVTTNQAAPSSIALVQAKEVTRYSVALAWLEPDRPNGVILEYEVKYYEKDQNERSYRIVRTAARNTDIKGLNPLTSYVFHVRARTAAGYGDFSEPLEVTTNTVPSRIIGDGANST

[3] = molecular target: T3, human EphA4 extracellular domain-MBP-His protein (human); assay: ELISA
T3 construct: also called human EphA4 extracellular domain (ECD); Human EphA4 extracellular domain-MBP-His 10
Protocol: (§1) For the anti-human EphA4 monoclonal antibodies produced in Example 1, evaluation of binding activity to various EphA4 was performed according to the following steps. Mouse anti-6-His antibodies (R&D) were coated on the wells of a 96-well plate (Thermo […]). After incubating at room temperature for 1 hour, the wells were blocked at room temperature for 1 hour with 1% Block Ace (KAC). After washing three times with 0.02% Tween 20/PBS, the wells were seeded with human EphA4 extracellular domain-MBP-His protein, human EphA4 ligand binding domain-MBP-His protein, human EphA4 fibronectin III-type domain 1-MBP-His protein, human EphA4 fibronectin III-type domain 2-MBP-His protein, or MBP-His protein (final concentration 1 nM), and this was incubated at room temperature for 1 hour. After washing three times, anti-human EphA4 rabbit monoclonal antibody (10 pg/mL) was added, and this was incubated at room temperature for 1 hour. After washing three times, horseradish peroxidase labeled goat anti-rabbit IgG polyclonal antibody (abcam) was added, and this was incubated at room temperature for 1 hour. After washing three times, TMBZ (3,3′,5,5′-tetramethylbenzidine, KPL) solution was added to the wells, and this was incubated for four and a half minutes at room temperature. Equal amounts of quenching solution (2 N H₂SO₄, FUJIFILM Wako) were added to the wells, and absorbance at 450 nm and 650 nm were read with a microplate reader (Thermo […]).

MBP = assay: ELISA
Protocol: as §1

FN2 = assay: ELISA
Protocol: as §1

FN1 = assay: ELISA
Protocol: as §1

[4] = molecular target: human EphA4 ligand binding domain-MBP-His protein (human, UniProt P54764 20-209; P0AEX9 29-392 = MBP); assay: ELISA
Protocol: as §1

[5] = molecular target: T3, human EphA4 extracellular …; assay: SPR Biacore T200, EphA4 ECD-MBP-His captured by anti-His antibody, antibody as analyte, 1:1 model
Protocol: (§2) The binding affinity of KPEP11_04, KPEP11_08, KPEP11_10, and KPEP11_18 against human EphA4 was determined by the surface plasmon resonance method (SPR method) employing Biacore T200 (Cytiva). First, an anti-His antibody (Cytiva, 28-9950-56) was diluted to 10 μg/mL with the immobilizing buffer (10 mM sodium acetate, pH 4.5), and immobilized onto a sensor chip CM5 according to the protocol attached to Biacore T200. Immobilization was performed by the amine coupling method employing N-hydroxysuccinimide (NHS) and N-ethyl-N′-(3-dimethylaminopropyl) carbodiimide hydrochloride salt (EDC), and ethanolamine was employed for blocking (sensor chips or immobilizing reagents were all from Cytiva). Human EphA4 extracellular domain-MBP-His 10 was diluted with a running buffer HBS-EP+ (Cytiva), and pumped onto a flow cell for 120 seconds to allow capturing (captured amount of about 3 RU). […] At the end of each observation, 10 mM glycine hydrochloric acid pH 1.5 (60 seconds) and 3 M MgCl₂ (30 seconds) were added to regenerate the sensor chips. Fitting analysis by the 1:1 binding model employing the BIA evaluation software attached to the system was performed against the binding reaction curves obtained to calculate the binding affinity against human EphA4 (KD=kd/ka). The experiment described above was carried out three times, and the mean was calculated for each parameter.

Rabbit = molecular target: T4, Rabbit; assay: ELISA
T4 construct: also called rabbit EphA4 extracellular domain-SEAP-His protein
Protocol: (§3) For the anti-human EphA4 monoclonal antibodies produced in Example 1, evaluation of binding activity to various EphA4 was performed according to the following steps. Mouse anti-6-His antibodies (R&D) were coated on the wells of a 96-well plate (Thermo […]). After incubating at room temperature for 1 hour, the wells were blocked at 4° C. overnight with 1% Block Ace (KAC). After washing three times with 0.02% Tween 20/PBS, the wells were seeded with mouse EphA4 extracellular domain-SEAP-His protein, rat EphA4 extracellular domain-SEAP-His protein, rabbit EphA4 extracellular domain-SEAP-His protein, monkey EphA4 extracellular domain-SEAP-His protein, human EphA4 extracellular domain-SEAP-His protein, or SEAP-His protein (final concentration 1 nM), and this was incubated at room temperature for 1 hour. After washing three times, anti-human EphA4 rabbit monoclonal antibody (10 pg/mL) was added, and this was incubated at room temperature for about 1 hour. After washing three times, horseradish peroxidase labeled goat anti-rabbit IgG polyclonal antibody (abcam) was added, and this was incubated at room temperature for 1 hour. After washing three times, TMBZ (3,3′,5,5′-tetramethylbenzidine, KPL) solution was added to the wells, and this was incubated for 3 minutes at room temperature. Equal amounts of quenching solution (2 N H₂SO₄, FUJIFILM Wako) were added to the wells, and absorbance at 450 nm and 650 nm were read with a microplate reader (Thermo […]).

SEAP = molecular target: T5, SEAP; assay: ELISA
T5 construct: negative control antigen; also called SEAP-His protein
Protocol: as §3

Mouse = molecular target: T6, Mouse; assay: ELISA
T6 construct: also called mouse EphA4 extracellular domain-SEAP-His protein
Protocol: as §3

Rat = molecular target: T7, Rat; assay: ELISA
T7 construct: also called rat EphA4 extracellular domain-SEAP-His protein
Protocol: as §3

[6] = molecular target: T1, human EphA4 extracellular …; assay: ELISA; remark: listed apart in the source
Protocol: as §3

[7] = molecular target: T3, human EphA4 extracellular …; assay: SPR Biacore T200, EphA4 ECD-MBP-His captured by anti-His antibody, antibody as analyte, 1:1 model, mean of three
Protocol: as §2

[8] = molecular target: T2, monkey EphA4 extracellular …; assay: ELISA; remark: listed apart in the source
Protocol: as §3

Binder	EC50 (read off the curve) [1] [nM]	EC50 (read off the curve) [2] [nM]	absorbance [3]	absorbance (MBP)	absorbance (FN2)	absorbance (FN1)	absorbance [4]	Kd [5]	koff [5]	kon [5]	absorbance (Rabbit)	absorbance (SEAP)	absorbance (Mouse)	absorbance (Rat)	absorbance [6]	Kd [7] [nM]	koff [7] [s⁻¹]	kon [7] [M⁻¹ s⁻¹]	absorbance [8]
B1	~0.02	~0.02	1.31	0.3	0.265	0.283	0.292	1.51 nM and 1.67 nM and 1.36 nM	0.00214 s⁻¹	1.42e+06 M⁻¹ s⁻¹ and 1.24e+06 M⁻¹ s⁻¹ and 1.58e+06 M⁻¹ s⁻¹	0.057	0.072	0.071	0.065	1.15	1.51	0.00217	1.44e+06	–
B2	~0.02	~0.02	1.35	0.334	0.325	0.329	0.34	1.36 nM and 1.23 nM	0.00196 s⁻¹ and 0.00198 s⁻¹	1.44e+06 M⁻¹ s⁻¹ and 1.58e+06 M⁻¹ s⁻¹	0.091	0.087	–	0.087	1.17	1.3	0.00196	1.52e+06	1.11
B3	~0.01	~0.01	1.42	–	–	0.222	1.43	0.416 nM and 0.382 nM	0.00128 s⁻¹ and 0.00137 s⁻¹ and 0.00127 s⁻¹	3.06e+06 M⁻¹ s⁻¹ and 3.32e+06 M⁻¹ s⁻¹ and 3.44e+06 M⁻¹ s⁻¹	0.059	0.054	–	0.067	1.23	0.389	0.00127	–	1.18
